From the nanobody polyreactivity screen of Harvey et al. (2022)

Assay: yeast display, Sf9 membrane polyspecificity reagent, FACS + sequencing; frameworks hold sequencing errors
Outline: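 Nanobodies came from a synthetic yeast display library in Saccharomyces cerevisiae BJ5465, induced with galactose for 36–48 hours and stained for 1 hour at 4 °C with 10% biotinylated, detergent-solubilized Sf9 membrane reagent. Cells were enriched on streptavidin microbeads and then FACS-sorted, with low and high (top ~1%) gates set on anti-HA fluorescence for expression and streptavidin fluorescence for reagent binding. Each polyreactivity label reflects the gate a clone came from. Genes were amplified by colony PCR, sequenced by MiSeq 2 × 250 and filtered by CDR length.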

Sequence	polyreactivity (PSR sort gate)
QVQLVESGGALVQAGGSLRLNCAASGRIFVYNDMGWYRQAPGNERDLVAAISSVGTTYYADSVKGRFTISRDNAKFTVYLQMKTLKPVETAVYDCDVTRYHSPPRYYFWGQGSQVTVSS	low polyreactivity
QVQLVESGGGLVQAGGSLRLSCAASGSTFSYYAMGWYRQAPGKERELVAANTSGCRSKYADSVKGRFTISRDNAKNTVYLQINSLKPEDTAVYYCAKRIENFSGSLAGRWYDYWGQGTQVNVSS	high polyreactivity
QVQLVESGGGLVQAGGSLRLSCAASGSTFYLYAMGWYRQAPGKERELVAAISWSGDSTYYADSVKGRFTISRDNAKNTVYLQMNSLKPEDTAVYYCAAEFYWGDLSYWGQGTQVSVSS	high polyreactivity
QVQLVESGGGLVQAGGSLRLSCAPSGIILAYYAMGWYRQAPGKERELVAAISRSGGITYYADSVKGRFTISRDNAKNTVYLQMNSLKPEDTAVYYCARYSSRPYDYWGQGTQVTVSS	high polyreactivity
QVQLVESGGGLVQAGGSLRLSCAASGLIFKRNAMGWYRQAPGKERELVATISGSGGSTYYADSVKGRFTISRDNAKNTFYLQMNSLKPEDTAVYYCAAEASSVSYPYEYEYWGQGTQVTVSS	high polyreactivity
QVQLVESGGGLVQAGGSLRLSCAAYGSIFAYNAMGWYRQAPGKEREFVAVITRSDDSTYADSVTGRFTISRDNAKNTVYLQMNSLKPVDTAVYYCAAQPFVIDGGYRGDYWGQGTQVTVSS	low polyreactivity
QVQLVESGGGLVQAGGSLRLSCAASGRTFTYYAMGWYRQAPGKERELVAAISSTGGSTYYADSVKGRFTISRDNAKNTVTLQMNSLKPEDTAVYYCNVAFDDFDYWGQGTQVTVSS	low polyreactivity
QVQLVESGGGLVQAGGSLRLSCAASGRTFIGNAMGWYRQAPGKERELVAGIDSDGSTNYADSVKGRFTISRDNAKNTVYLLMNSLKPEDTAVYYCAAVQGYRFYEYYYWGQGTQVTVSW	low polyreactivity
QVQLVESGGGLVQAGGSLRLSCAASGSTFIRYAMGWYRQAPGKERELVAAITWRGGSTYYADSVKGRFTISRDNAKNTVYLQMNSLKPEDTAVYYCAARDRDTRNYYWGQGTQVTVSS	high polyreactivity
QVQLVESGGGLVQAGGSLRLSCAASGSIFRVYAMGWYRQAPGKERELVAGITGRGGSTYYADSVKGRFTISRDNAKNTVYLQMNSLKPEDTAVYYCNRRYRYGRDYWGQGTQVTVSS	high polyreactivity
QVHLVESGGGLVQAGGILRLSCAASGRTFRYYAMGWYRQAPGKERELVAAISSGGSTNYADSVKGRFTISRDNAKNTVYLQMNSLKPEDSAVYYCADLWSGNKFNYWGQGTQVTVSS	low polyreactivity
QVQLVESGGGLVQAGGSLRLSCAASGFIFRYYAMGWYRQAPGKERELVAAISSGGRTSYADSVKGRFTISRDNAKNTVYLQMNSLKPEDTAVYYCAADRWRGLFYYGKDYWGQGTQVTVSS	high polyreactivity
QVQLVESGGGLVQAGGSLRLSCAASGSIFYRNTMGWYRQAPGKERELVAAITYSGGSTYYADSVKGRFTISRDNAKNTVYLQMNSLKPEDTAVYYCAVTDFYSYLLRYDSWGQGTQVTVSS	low polyreactivity
QVQLVESGGGLLQAGVSLRLSCAASGFIFSYNTMGWYRQPPGKEREFVAAITYSGGSTYYADSVKWRFTSSRHNAKNSVYLQMNTLKPEDTAVYYCAAPYPRGYFFGDSPKGYGGGYWGQGTQVTVSS	high polyreactivity
QVQLVESGGGLVQAGGSLRLSSAASGSIFSRYAMGWYRQAPGKEREMVAALNGRGSRTYYADSVKGRFTISRDNSKNTVYLLMNSLKPEDTAVYYCAAESYTAWELDYWGQGTQVTVSS	high polyreactivity
QVQLVESGGGLVQAGGSLRLSCAASGFTFVYYAMGCYRQAPGKERELVAAISRSGATTFYADSVKGRFTISRDNAKNTVYLQMNSLKPEDTAVYYCAVDSYAYYYGYWGQGTQVTVSS	high polyreactivity
QVQLVESGGGLVQAGGSLRLSCAASGSTFKAYAMGWYRQAPGKERELVAAITNSDGDTYYADSVKGRFTISRDNAKNTVYLQMNSLKAEDTAVYYCNALYFLKKLYDYWGQGTQVTVSS	low polyreactivity
QVQLVESGGGLVQAGGSLRLSCAASGSNFVNNAMGWYRQAPGKERELVASITWSGGRTYYADSVKGRFTISRDNAKNTVDLQMNSLKPEDTAVYYCNKRQYSRTFRYGYWGQGTEVTVSS	high polyreactivity
QLQLVESGGGLVQAGGSLRLSCAASGFIFSWYAMGWYRQAPGKERELVAAISWSGGSTYYADSVKGRITISRDNANNSVYLQMNSLKPEDTAVYYCADDRGWAKEYYWVQGTQVTVSS	high polyreactivity
QVQLVESGGGLVQAGGSLRLSCAASGIIFSIYAMGWYRQAPGKERELVAAISGRGGRTYYADSVKGRFTISRDNAKNTVYLQMNSLKPVDTAVYYCNAEYHDLYDYWGQGTQVTVSS	low polyreactivity
QVQLVESGGGLVQAGGSLRLSCAASGITFDVNAMGWYRQAPGKERELVAAITAGGNTYYADSVKGRFTISRDNAKNTVYLQMNSLKPEDTAVYYCAAVSTSLYWAGYDYWGQGTQVTVSS	low polyreactivity
QVQLVESGGGLVQAGGSLRLSCAASGRIFYNYAMGWYRQAPGKERELVAAITRRAGRTYYADSVKGRFTISRDNSKNTVYLQMNSLKPEDTAVYYCAKDEPGSSRVLYDSWGQGTQVTVSS	low polyreactivity

Sequence	polyreactivity (PSR sort gate)
QVQLVESGGGLVQAGGSLRLSCAASGNSFREYTMGWCRQAPGKERELVAGISGSGGRTYYADSVKGRFTISRDNAKNTVFLQMNSLKPEDTAVYYCNDRWYYGIGYNYWGQGTQVTVSS	high polyreactivity
QVQLVESGGGLVQAGGSLRLSCAASGIIFLFYAMGWYRQAPGKERELVASITWSGGSTYYADSVKGRFTISRDNAKNTVYLQMNSLKPEDTAVYYCAASVKIISYLVHSEFLGGELDYWGQGTQVTVSS	low polyreactivity
QVQLVESGGGLVQAGGSLRLSCAASGSIFSRYAMGWYRQAPGKERELVAAISSSGSSTYYADSVKGRFTISRDNAKNTVYLQMNSLKPEDTAVYYCAATGYPRFGYWGQGTQVTVSS	high polyreactivity
QVQLVESGGGLVQAGGSLRLSCAASGRIFNQYCMGWYRQAPGKERELVAAIRSGDSTNYADSVKGRFTISRDNAKNTVYLQMNSLKPEDTAVYYCARDRPGDYAGYDYWGQGTQVTVSS	low polyreactivity
QVQLVESVGGLVQAGGSLRLSCAASGTIFGWYAMGWYRQAPGKEREMVATIDASGRSTFYADTVKGRFTISRDNAKNTVYLQMNSLKPEDTAVYYFNSRYPRQYWGGYDYWGQGTQVTVSS	low polyreactivity
QVQLVESGGCLVHAGGSLRVSSAASGITFILNAMGWYRQAHGKEREFVAAISTYRGNTYYADSVKGRFTISRDNVKNTFYLEMYSLKPEDTAVYYSNADLYFRQGDVDLLRYVYWVQGTQVTVSS	low polyreactivity
QVQLVESGGGLVQAGGSLRLSCAASGSIFYRNTMGWYRQAPGKERELVASINTGTGTYYADSVKGRFTISRDNAKNTVYLQMNSLKPEDTAVYYCNSKGWVWPFPSYYPYDSWGQGTQVTVSS	high polyreactivity
QVQLVESCGGLVQAGGSLRLSCAASGSIFGDYVMGWYRQAPGKERELVAAINRGGSTYYADSVKGRFTISRDNAKNTVYLQMNSLKPEDTAVYYCAAGYPSWYYGYPYDSWGQGTQVTVSS	low polyreactivity
QVQLVESGGGLVQAGGSLRLSCAASGSILLGYDLGWYRQAPGKERELVASIDTNGGSTYYADSVKGRFTISRDNAKNTVYLQMNSLKPEDTAVYYCNADPSFVGGTYDYWGQGTQVTVSS	low polyreactivity
QVQLVESGGGLVQAGGSLRLSCVASGSIFRGNAMGWYRQAPGKERELVASISKGGGSTYYADSVKGRFIISRDNAKNTVYLQIHSLKPEDTAVYYCYKDYDRRDFYYWGLGTQVTVSS	low polyreactivity
QVQLVESGGGLVQAGGSLSLSCAASGLTFFGYAIGWYRQAPGKEREVVAAISTSGTRTYYADSVKGRFTISRDNAKNTVYLQMNSLKPEDTAVYYCATVRYQEYDYWGQGTQVTVSS	high polyreactivity
QVQLVESGGGLVQAGGSLRLSCAASGSIFKVYAMGWYRQAPGKERELVAAITGSGGSTYYADSVKGRFTISRDNAKNTVYLQMNSLKPEDTAVYYCNTDYYYSGYFRRFDYWGQGTQVTVSS	high polyreactivity
QVQLVESGGGLVQAGGSLRLSCAASGRIFSGYAMGWYRQAPGKERELVAAITSRSGSTYYADSVKGRFTISRDNAKNTVYLQMNSLKPEDTAVYYCAAEYVRFYWYTSDYWGQGTQVTVSS	low polyreactivity
QVQLVESGGGLVQAGGSLRLSCAASGFIFGYYAMGWYRQAPGKERELVAAITGGGSTYYADSVKGRFTISRDNAKNTVYLQMNSLKPEDTAVYDCNADYGDGEYDYWGQGTQVTVSS	low polyreactivity
QVQLVESGGGLVQAGGSLRLSCAASGSIIRHNVMVWYRQAPGKERELVAAISGGGGRTYYADSVKGRFTISRDNAKNTVSLQMNRLKPEDTAVYYCNAYVGLSEGDYWGQGTQVTVSS	high polyreactivity
QVQLVESGGGLVQAGGSLRLSCAASGSTFYWYTMGWYRQAPGKERELVARISSSGSTNYADSVKGRFTISRDNAKNTVYFQMNSLKPEDTAVYYCNKDWIYRGYDYWGQGTQVTVSS	high polyreactivity
QVQLQESGGGLVQAGGSLRLSCAASGTISPLPAMGWYRQAPGKEREFVAGIDTGAITNYADSVKGRFTISRDNAKNTVYLQMNSLKPEDTAVYYCAADLFLDGSSQYAPNWWPDGWNTYRLLGGYWGQGTQVTVSS	low polyreactivity
QVPLVESGGGLVQAGGILRLSSAASGFIFTYYAMGWYRQAPGKERELVAAISASGGSTYYADSVKGRFTISRDYAKNTVYIQLYSLEPEDSSVYYCNKLYQQRAWETFSWGGYWGQGTQVTVSS	high polyreactivity
QVQLVESGGGLVQAGGSLRLSCAASGLTFLWYAMGWYRQAPGKERELVAAITSGGRTKYADSVKGRFTISRDNAKNTVYLQMNSLKPEDTAVYYCAAYTQWWGYDYWGQGTQVTVSS	high polyreactivity
QVQLVESGGGLVQAGGSLRLSCAASGSMFAAYAMGWYRQAPGKARELVAAISSGDGTYYADSVKGRFTISRDNAKNTVYLQRNSLKPEDTAVYYCNAYVSQRYRGSRYYYWGQGTQVTLSS	high polyreactivity
QVQLVESGGGLVQAGGSLRLSCAASGRIFPYNAMGWYRPAPGKEREFVAAITWSGGSTYYADSVKGRFTISRDNAKNTVYLQMNCLKPEDTAVYYCAIRYPWQYNYWGQGTQVTVSS	high polyreactivity
